For assay [1], the target named is T1, dog dystroglycan (DG) (MDCK cells) (dog, UniProt Q9TSZ6 28-892).
T1 construct: whole, on cells; also called dog DG
T1 sequence (looked up): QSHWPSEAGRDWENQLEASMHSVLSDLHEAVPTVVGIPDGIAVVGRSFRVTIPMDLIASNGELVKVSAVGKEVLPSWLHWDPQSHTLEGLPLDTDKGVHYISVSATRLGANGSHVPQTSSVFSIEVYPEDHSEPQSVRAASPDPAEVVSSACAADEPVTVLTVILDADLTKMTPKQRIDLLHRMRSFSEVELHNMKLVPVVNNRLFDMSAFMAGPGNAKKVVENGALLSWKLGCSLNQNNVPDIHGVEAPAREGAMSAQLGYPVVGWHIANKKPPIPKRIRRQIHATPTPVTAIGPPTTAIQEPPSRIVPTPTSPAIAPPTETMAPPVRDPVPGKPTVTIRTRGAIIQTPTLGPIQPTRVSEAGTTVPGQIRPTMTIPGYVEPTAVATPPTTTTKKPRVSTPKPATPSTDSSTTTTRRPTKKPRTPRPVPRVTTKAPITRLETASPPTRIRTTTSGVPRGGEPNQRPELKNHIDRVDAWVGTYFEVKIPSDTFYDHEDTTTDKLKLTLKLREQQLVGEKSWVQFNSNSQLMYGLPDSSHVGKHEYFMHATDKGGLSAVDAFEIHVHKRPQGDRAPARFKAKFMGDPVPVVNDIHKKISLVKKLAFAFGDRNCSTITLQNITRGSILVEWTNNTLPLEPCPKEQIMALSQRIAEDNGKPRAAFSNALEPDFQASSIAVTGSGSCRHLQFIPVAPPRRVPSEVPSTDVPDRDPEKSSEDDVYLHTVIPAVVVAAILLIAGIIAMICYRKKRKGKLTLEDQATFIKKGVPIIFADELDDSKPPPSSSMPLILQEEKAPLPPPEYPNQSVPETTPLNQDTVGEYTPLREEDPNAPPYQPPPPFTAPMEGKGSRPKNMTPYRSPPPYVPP
The assay can be described thus: not described; MDCK cells.

In assay [2] the target is T2, human dystroglycan (DG) heterodimer of α-DG and β-DG (human, UniProt Q14118 30-653; Q14118 654-895, variable O- and N-glycosylation of α-DG (sites listed in paragraph 55)).
T2 construct: In the immunoprecipitations it came from lysates of surface-biotinylated cells; also called DAG1; Dystrophin-Associated Glycoprotein 1
T2 sequence 1: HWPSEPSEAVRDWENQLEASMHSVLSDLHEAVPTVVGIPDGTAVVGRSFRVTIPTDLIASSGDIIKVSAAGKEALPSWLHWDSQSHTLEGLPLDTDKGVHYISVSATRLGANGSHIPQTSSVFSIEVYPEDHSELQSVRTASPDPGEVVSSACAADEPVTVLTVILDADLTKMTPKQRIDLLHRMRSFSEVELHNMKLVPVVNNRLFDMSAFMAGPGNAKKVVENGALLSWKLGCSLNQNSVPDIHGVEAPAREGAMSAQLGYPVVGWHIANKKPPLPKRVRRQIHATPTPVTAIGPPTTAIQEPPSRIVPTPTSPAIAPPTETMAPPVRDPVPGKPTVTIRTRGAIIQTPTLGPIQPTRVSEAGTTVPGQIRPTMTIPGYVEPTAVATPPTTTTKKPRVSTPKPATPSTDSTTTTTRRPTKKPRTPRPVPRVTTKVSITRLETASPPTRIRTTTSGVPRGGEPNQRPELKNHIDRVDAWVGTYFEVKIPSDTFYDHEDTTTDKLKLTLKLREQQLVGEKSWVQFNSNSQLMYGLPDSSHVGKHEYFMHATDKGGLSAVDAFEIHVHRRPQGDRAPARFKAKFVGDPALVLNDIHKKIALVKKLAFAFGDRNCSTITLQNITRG
T2 sequence 2: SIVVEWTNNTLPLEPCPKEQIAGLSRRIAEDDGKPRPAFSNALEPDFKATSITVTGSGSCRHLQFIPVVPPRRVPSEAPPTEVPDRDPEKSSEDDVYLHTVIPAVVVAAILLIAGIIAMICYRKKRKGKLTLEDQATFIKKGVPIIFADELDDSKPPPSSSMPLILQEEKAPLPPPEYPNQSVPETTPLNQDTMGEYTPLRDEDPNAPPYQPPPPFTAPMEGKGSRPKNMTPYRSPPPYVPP
The assay can be described thus: live-cell immunofluorescence on co-cultured MEpG cells with and without human DG (FIG. 3). As to the method:
Example 2. Screening for antibodies of interest by live cell binding and internalization. Antibody activity was measured as binding to the surface of living cells expressing the human DG protein (“positive” cells) but not to negative controls (cells derived from an engineered conditional DG knockout mouse lacking human DG expression). The positive population was the same cell line used for immunization, MEpG cells expressing the human DG protein. The negative population was the murine MEpG line expressing green fluorescent protein (GFP) and not the human DG protein, created as previously described in Oppizzi et al., Traffic, 9(12): 2063-2072, 2008. The positive and negative populations were co-cultured in wells of Ibidi 96-well micro-plates (Ibidi, catalog #89626) and distinguishable by GFP expression. Hybridoma supernatants to be tested were diluted 1:1 with plain DMEM:F12 cell culture medium (Gibco) and added to cell-containing wells of the 96-well Ibidi plates. Each well was incubated for 60 minutes at 37° C. with the hybridoma supernatants to be tested, washed with DMEM:F12 medium, and incubated 30 minutes at 37° C. with an anti-mouse secondary antibody conjugated to the Alexa-568 fluorescent dye (Jackson Immunochemicals) diluted 1:1000 in DMEM:F12 medium. […]

Assay [3] deals with T2, human dystroglycan (DG) heterodimer of …. The assay can be described thus: live-cell immunofluorescence on UMUC3, UMUC5, UMUC9 and UMUC10.

B1: monoclonal antibody from hybridoma DG1A11 (ATCC Patent Deposit No. PTA-126595) (antibody, V domains shown)
VH: DVQLQESGPGLVKPSQSLSLTCTVTDYAITSDYAWNWIRQFPGNKLEWMGYISYSGSTSYSSSLKSRISITRDTSKNQFFLQLNSVTPEDTATYYCARAAPFTTLTDFFDYWGQGTTLTVSS
VL: DIVMTQSHKFMSTSVGDRVTITCKASQDVTTAVAWYQQKPGQSPKLLIYWASSRHTGVPDRFTGSGSGTDYTLTISSVQAEDLALYYCQQHYSTPYTFGGGTKLEIKR
notes: Mouse monoclonal antibody (Balb/c hybridoma); Tested as hybridoma supernatant or purified antibody; also called Antibody A; lane A
Take B1: the binding result in assay [1] is recorded as “no binding”; in assay [2], “binds”.

B2: monoclonal antibody from hybridoma DG4H4 (ATCC Patent Deposit No. PTA-126594) (antibody, V domains shown)
VH: QVTLKESGPGILKPSQTLSLTCSFSGFSLSTSGMGVGWIRQPSGKGLEWLAHIWWDDDKYYNPSLKSQLTISKDTSRNQVFLKITSVDTADTATYYCARRAYYYGSSYPMDYWGQGTSVTVSS
VL: DIVLTQSPTSLAVSLGQRATFSCKASQSVDYDGDSYMNWYQQKPGQPPKLLIYAASNLDSGIPARFSGSGSGTDFTLNIHPVEEEDAATYYCQQSNEDPLTFGAGTKLELKR
notes: Mouse monoclonal antibody (Balb/c hybridoma); also called lane F
On to B2, for which the values for the binding result in assay [3] and in assay [1] were “binds” and “no binding”, respectively.

For the origin of these results see patent US20230140976A1 (OREGON HEALTH AND SCIENCE UNIVERSITY, published 2023).
